# Measured values taken from doi:10.64898/2025.12.12.693935, “Tetraspanin CD82 reduces the formation of CADM1 oligomers” (bioRxiv, 2025).
# B1: CADM1(ECD)-His6 (domain or fragment, human, UniProt Q9BY67 45-374, looked up)
# chain: QNLFTKDVTVIEGEVATISCQVNKSDDSVIQLLNPNRQTIYFRDFRPLKDSRFQLLNFSSSELKVSLTNVSISDEGRYFCQLYTDPPQESYTTITVLVPPRNLMIDIQKDTAVEGEEIEVNCTAMASKPATTIRWFKGNTELKGKSEVEEWSDMYTVTSQLMLKVHKEDDGVPVICQVEHPAVTGNLQTQRYLEVQYKPQVHIQMTYPLQGLTREGDALELTCEAIGKPQPVMVTWVRVDDEMPQHAVLSGPNLFINNLNKTDNGTYRCEASNIVGKAHSDYMLYVYDPPTTIPPPTTTTTTTTTTTTTILTIITDSRAGEEGSIRAVDH
# notes: ectodomain of CADM1, human, UniProtKB Q9BY67.2, without the natural signal peptide; also called His-tagged CADM1 ectodomain; soluble CADM1(ECD)-His6; source: HEK293-E+ cells, secreted into the supernatant, purified (Ni Sepharose excel, SEC); not shown: His6, C-terminal, kept
# B2: CADM1-StrepII3 (natural protein, human, UniProt Q9BY67 45-442, looked up)
# chain: QNLFTKDVTVIEGEVATISCQVNKSDDSVIQLLNPNRQTIYFRDFRPLKDSRFQLLNFSSSELKVSLTNVSISDEGRYFCQLYTDPPQESYTTITVLVPPRNLMIDIQKDTAVEGEEIEVNCTAMASKPATTIRWFKGNTELKGKSEVEEWSDMYTVTSQLMLKVHKEDDGVPVICQVEHPAVTGNLQTQRYLEVQYKPQVHIQMTYPLQGLTREGDALELTCEAIGKPQPVMVTWVRVDDEMPQHAVLSGPNLFINNLNKTDNGTYRCEASNIVGKAHSDYMLYVYDPPTTIPPPTTTTTTTTTTTTTILTIITDSRAGEEGSIRAVDHAVIGGVVAVVVFAMLCLLIILGRYFARHKGTYFTHEAKGADDAADADTAIINAEGGQNNSEEKKEYFI
# notes: CADM1 excluding the signal peptide, human, UniProtKB Q9BY67.2; called full-length in the results; expressed behind the vector's N-terminal signal peptide; also called full-length CADM1-StrepII3; source: HEK293-E+ cells, transiently transfected, solubilized in DDM, purified (strep-tactin, SEC); not shown: StrepII3, C-terminal, kept
# B3: CADM1-eGFP-StrepII3 (natural protein, human, UniProt Q9BY67 45-442, looked up)
# chain: B2 chain
# notes: CADM1 excluding the signal peptide, human, UniProtKB Q9BY67.2; expressed behind the vector's N-terminal signal peptide; source: HEK293-E+ cells, transiently transfected, solubilized in DDM, purified (strep-tactin); not shown: eGFP, C-terminal, kept; StrepII3, C-terminal, kept
# Experiments:
# [1] = target: the molecule itself; assay: SEC-MALS; SEC-MALLS, Superdex 200 increase 10/300 GL, 200 mM NaCl, 25 mM HEPES 7.5, 0.4 mL/min; CADM1(ECD)-His6 at 160, 80, 40 and 20 µM; monomer to dimer
# [2] = target: the molecule itself; assay: SEC; F-SEC on tryptophan fluorescence, Superose 6 increase 10/300, purified protein injected at 0.15 to 80 µM; 150 mM NaCl, 25 mM HEPES pH 7.5, 0.025% DDM
# [3] = target: the molecule itself; assay: SEC; F-SEC on the eGFP signal, Superdex 200 increase 10/300 GL, strep-tactin-purified samples of individually expressed or co-expressed proteins; 150 mM NaCl, 25 mM HEPES pH 7.5, 0.025% DDM
protein,measurement,setting,value
B1,stoichiometry N,[1],2
B2,binding result,[2],binds
B3,binding result,[3],binds
